For the assay, the target named is T1, Soluble recombinant human leptin receptor (human, UniProt P48357 22-839).
T1 construct: leptin receptor (Ob R), human, soluble recombinant form; PDB 3V6O (CRH2 domain) was used only for docking; also called recombinant leptin receptor; Ob R; source: bought: Thermo Fischer, USA (synthesized in Escherichia coli)
T1 sequence (looked up): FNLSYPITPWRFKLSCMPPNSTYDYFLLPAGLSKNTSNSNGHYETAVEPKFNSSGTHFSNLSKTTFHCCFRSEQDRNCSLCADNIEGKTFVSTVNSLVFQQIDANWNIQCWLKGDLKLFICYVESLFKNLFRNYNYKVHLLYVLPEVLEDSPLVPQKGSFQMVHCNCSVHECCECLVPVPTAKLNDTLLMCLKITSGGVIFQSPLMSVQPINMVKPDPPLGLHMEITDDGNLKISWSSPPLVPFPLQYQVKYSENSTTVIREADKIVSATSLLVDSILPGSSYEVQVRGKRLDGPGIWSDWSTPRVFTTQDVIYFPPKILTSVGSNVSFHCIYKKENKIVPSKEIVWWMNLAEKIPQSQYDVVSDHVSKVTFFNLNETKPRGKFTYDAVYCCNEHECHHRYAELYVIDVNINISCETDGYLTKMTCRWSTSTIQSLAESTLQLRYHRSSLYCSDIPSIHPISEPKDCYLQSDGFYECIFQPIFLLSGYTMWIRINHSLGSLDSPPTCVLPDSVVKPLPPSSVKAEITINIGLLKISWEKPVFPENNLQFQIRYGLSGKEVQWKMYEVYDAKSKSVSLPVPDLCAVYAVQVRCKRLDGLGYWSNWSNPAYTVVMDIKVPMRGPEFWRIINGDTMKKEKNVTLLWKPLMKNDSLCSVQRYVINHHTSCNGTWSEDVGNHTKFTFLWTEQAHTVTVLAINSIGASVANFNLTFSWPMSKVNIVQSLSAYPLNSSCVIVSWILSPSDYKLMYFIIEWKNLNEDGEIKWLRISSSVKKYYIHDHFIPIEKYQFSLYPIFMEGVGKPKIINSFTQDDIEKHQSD
Description: ELISA; solid phase binding assay; CRP forms or control proteins coated on a 96-well plate at 4°C overnight in Tris/HCl 0.05 M pH 7.4 (different concentrations, or 0.6 µg/ml for Figure 5B); blocked with 0.5% gelatin; leptin receptor 100 ng/ml in 50 µl PBS added for 1 h at RT; detected with anti-Ob R antibody and HRP anti-rabbit IgG. The following applies: both partners purified.

B1: Monomeric CRP prepared from human serum CRP (natural protein, UniProt P02741 19-224, looked up)
chain: QTDMSRKAFVFPKESDTSYVSLKAPLTKPLKAFTVCLHFYTELSSTRGYSIFSYATKRQDNEILIFWSKDIGYSFTVGGSEILFEVPEVTVAPVHICTSWESASGIVEFWVDGKPRVRKSLKKGYTVGAEASIILGQEQDSFGGNFEGSQSLVGDIGNVNMWDFVLSPDEINTIYLGGPFSPNVLNWRALKYEVQGEVFTKPQLWP
notes: C-reactive protein, human, from serum; protomer of 206 amino acid residues as printed in the introduction; dissociated to the monomer with urea/EDTA; Same chain as native CRP, dissociated to monomers; also called s-mCRP; human mCRP; source: bought: Thermo Fischer, USA (human CRP); made monomeric with 8 M urea/10 mM EDTA at 37°C for 2 h
With B1, the dissociation constant (Kd) came out at 10.2 nM.

Source of the values: PMC5992430, “C-Reactive Protein (CRP) and Leptin Receptor in Obesity: Binding of Monomeric CRP to Leptin Receptor” (Frontiers in Immunology, 2018).
